Measurements: publication PMC10908828

Columns and labels:
[1] = biological target: human full-length RAF1 (residues 1-648) with C-terminal His6 (human) (UniProt P04049); assay: mass photometry; purified RAF1-HSP90-CDC37 complex
[2] = biological target: insect HSP90 from Trichoplusia ni (Trichoplusia ni (endogenous in Tni-FNL cells)); assay: mass photometry; purified RAF1-HSP90-CDC37 complex

stoichiometry N [1]: 2
stoichiometry N [2]: 2
Substance: insect HSP90 from Trichoplusia ni (natural protein)
